According to patent publication US20210380697A1 (HUMMINGBIRD BIOSCIENCE PTE, published 2021):

Assays:
[1] = molecular target: T1, His-tagged human VISTA (human, UniProt Q9H7M9 33-194); assay: BLI epitope binning, human VISTA-His on anti-Penta-His sensor; row = saturating antibody 400 nM; competitor added after it: V4-C1 IgG1 300 nM
T1 construct: Bought recombinant protein with a His tag; also called human VISTA-His recombinant protein; hVISTA
Method: (§1) Epitope binning experiments were performed by BLI using the Octet QK384 system (ForteBio). […] Biosensors were subsequently treated with 300 nM competing antibody in
(§2) The following antigen-binding molecules were analysed in the experiment: [1639]

[2] = molecular target: T1, His-tagged human VISTA; assay: BLI epitope binning, human VISTA-His on anti-Penta-His sensor; row = saturating antibody 400 nM; competitor added after it: IGN175A IgG1 300 nM
Method: as §1, §2

Row | Binder | change in response upon addition of the competing antibody [1] | change in response upon addition of the competing antibody [2]
1 | anti-VISTA clone V4-C1 IgG1 (antibody, V domains shown) VH: QVQLQESGPGLVKPSDTLSLTCTVSGYSITSDYAWNWIRQTPGKGLEWIGYITYSGYISYNPSLRSRVTISRDTSKNQFSLKLSSVTAADTAVYSCARALYYPWYFDVWGTGTTVTVSS VL: EIVITQSPATLSLSPGERATLSCRASSSVGYIHWYQQKPGQAPRPLIYATSNRATGIPARFSGSGSGTDNTLTISSLEPEDSAVYYCQQWSSYPPITFGGGTKLEVKR | -0.0158 nm | 1.07 nm
2 | IGN175A IgG1 (antibody, V domains shown, Prior-art comparator (WO 2014/197849)) VH: QVQLQQSGAELMKPGASVKISCKATGYTFSTHWIEWVKQRPGHGLEWIGEILPGSGSTSYNEKFKGKATFTADTSSNTAYMQLSSLTSEDSAVYYCARWLLYYYAMDYWGQGTSVTVSS VL: DVLMTQTPLSLPVSLGDQASISCRSSQSIVHSNGNTYLEWYLQKPGQSPKLLIYKLSNRFSGVPDRFSGSGSGTDFTLKISRVEAEDLGVYYCFQGSHFPYTFGGGTKLEIKR | 1.44 nm | 0.0454 nm
